From patent US20240199757A1 (UNIVERSITY OF CHICAGO, published 2024)

What was measured:
[1] = biological target: T1, Full-length murine NT5E (recombinant) (murine, UniProt Q61503 29-552); assay: SPR, His-captured NT5E, 1 mM ATP; SPR, 1 mM ATP
T1 construct: also called mNT5E
T1 sequence: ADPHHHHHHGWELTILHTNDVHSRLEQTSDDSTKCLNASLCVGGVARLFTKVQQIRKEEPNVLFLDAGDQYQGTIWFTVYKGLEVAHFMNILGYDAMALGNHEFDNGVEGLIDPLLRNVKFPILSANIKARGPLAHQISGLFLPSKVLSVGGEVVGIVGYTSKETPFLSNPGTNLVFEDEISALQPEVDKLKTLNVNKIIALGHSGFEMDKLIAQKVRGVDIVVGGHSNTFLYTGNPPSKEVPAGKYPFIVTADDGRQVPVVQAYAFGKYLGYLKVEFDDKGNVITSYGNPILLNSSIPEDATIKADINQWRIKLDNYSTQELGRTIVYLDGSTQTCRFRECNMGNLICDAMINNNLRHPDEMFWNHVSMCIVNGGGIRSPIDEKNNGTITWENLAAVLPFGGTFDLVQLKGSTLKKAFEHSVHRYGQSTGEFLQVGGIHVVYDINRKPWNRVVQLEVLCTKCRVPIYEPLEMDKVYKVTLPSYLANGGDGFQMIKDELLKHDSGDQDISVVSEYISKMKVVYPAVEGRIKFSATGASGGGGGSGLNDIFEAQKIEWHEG
Protocol: (§1) All SPR experiments were performed at 25° C. using MASS-1 (Bruker) instrument. hNT5E, mNT5E and cNT5E were immobilized onto a nitrilotriacetic acid (NTA) sensor chip via His-tag. For kinetic experiments, after ligand immobilization, 2-fold serial dilutions of the Fabs were injected. After double-reference subtraction data were analyzed with BiaEvaluation (GE Healthcare) or Sierra Analyser (Bruker) software. The experiments were carried in buffers in presence and absence of 1 mM ATP to compare the kinetic parameters of the Fabs binding to closed and open form of NT5E.

[2] = biological target: T2, N-terminal domain of human NT5E (human, UniProt P21589 27-335); assay: SPR, His-captured N-terminal domain, single injection, ATP-free buffer
T2 construct: also called N-terminal hNT5E
T2 sequence: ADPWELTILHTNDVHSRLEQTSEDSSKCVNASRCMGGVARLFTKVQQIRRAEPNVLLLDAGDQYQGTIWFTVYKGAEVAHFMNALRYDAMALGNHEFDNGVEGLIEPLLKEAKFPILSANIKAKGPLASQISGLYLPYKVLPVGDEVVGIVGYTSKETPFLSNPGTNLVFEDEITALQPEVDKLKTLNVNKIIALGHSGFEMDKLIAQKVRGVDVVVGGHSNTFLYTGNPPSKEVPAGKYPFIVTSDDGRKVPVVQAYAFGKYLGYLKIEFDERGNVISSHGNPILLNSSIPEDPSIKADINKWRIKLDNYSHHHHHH
Protocol: as §1
In the domain binding experiments, full-length, N-terminal, and C-terminal hNT5E were immobilized as described above.

B1: 1789 Fab (Fab, V domains shown)
VH: EVQLVESGGGLVQPGGSLRLSCAASGFNVSYSSIHWVRQAPGKGLEWVASISSSSGYTYYADSVKGRFTISADTSKNTAYLQMNSLRAEDTAVYYCARNYWGWYPFYYFAFDYWGQGTLVTV
VL: DIQMTQSPSSLSASVGDRVTITCRASQSVSSAVAWYQQKPGKAPKLLIYSASSLYSGVPSRFSGSRSGTDFTLTISSLQPEDFATYYCQQGWDYPITFGQGTKVEIKR
[1]
  Kd: 160 nM
  koff: 0.014 s⁻¹
  kon: 85000 M⁻¹ s⁻¹
[2]
  binding result: no binding (tested: 200 nM)
